Numbering of substitutions follows the chain as printed.
T1: cynomolgus monkey PSMA extracellular domain with 6His and Avi tag (PSMW1), biotinylated (cynomolgus monkey, UniProt Q04609 44-750 (human entry), biotinylated ; Biotinylated, presumably on the Avi tag, which is not in the letters. Glycosylated (expressed in HEK cells). PSMA forms a homodimer; one subunit is given.)
T1 construct: Expressed in 293HEK-expi cells; buffer with ZnCl2 to stabilize PSMA dimerization; A cyno PSMA-Fc fusion was also used in some plate-based pannings; also called cyno PSMA; Macaca Fascicularis PSMA
T1 chain: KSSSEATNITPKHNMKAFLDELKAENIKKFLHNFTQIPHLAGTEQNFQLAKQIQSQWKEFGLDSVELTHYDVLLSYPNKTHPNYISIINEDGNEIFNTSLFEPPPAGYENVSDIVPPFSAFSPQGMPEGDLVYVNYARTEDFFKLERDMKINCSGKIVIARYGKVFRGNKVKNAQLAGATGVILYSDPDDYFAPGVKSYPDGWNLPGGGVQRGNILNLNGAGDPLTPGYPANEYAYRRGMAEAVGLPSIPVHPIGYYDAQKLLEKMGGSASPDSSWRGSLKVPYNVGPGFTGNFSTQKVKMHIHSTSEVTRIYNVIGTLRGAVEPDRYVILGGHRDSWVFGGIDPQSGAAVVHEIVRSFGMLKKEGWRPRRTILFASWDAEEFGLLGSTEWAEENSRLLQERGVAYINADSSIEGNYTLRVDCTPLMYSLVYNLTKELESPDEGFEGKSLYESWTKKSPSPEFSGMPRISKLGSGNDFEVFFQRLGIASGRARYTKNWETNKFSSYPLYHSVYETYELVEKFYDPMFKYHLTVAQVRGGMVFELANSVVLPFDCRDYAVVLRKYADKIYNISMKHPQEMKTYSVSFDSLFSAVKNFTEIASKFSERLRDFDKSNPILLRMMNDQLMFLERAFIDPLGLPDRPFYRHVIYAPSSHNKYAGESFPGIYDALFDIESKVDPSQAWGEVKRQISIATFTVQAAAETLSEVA

T2: chimpanzee PSMA extracellular domain with 6His and Avi tag (PSMW8), biotinylated (chimpanzee, UniProt Q04609 44-750 (human entry), biotinylated ; Biotinylated, presumably on the Avi tag, which is not in the letters. Glycosylated (expressed in HEK cells). PSMA forms a homodimer; one subunit is given.)
T2 construct: Expressed in 293HEK-expi cells; buffer with ZnCl2 to stabilize PSMA dimerization; also called chimp PSMA; Pan troglodytes PSMA
T2 chain: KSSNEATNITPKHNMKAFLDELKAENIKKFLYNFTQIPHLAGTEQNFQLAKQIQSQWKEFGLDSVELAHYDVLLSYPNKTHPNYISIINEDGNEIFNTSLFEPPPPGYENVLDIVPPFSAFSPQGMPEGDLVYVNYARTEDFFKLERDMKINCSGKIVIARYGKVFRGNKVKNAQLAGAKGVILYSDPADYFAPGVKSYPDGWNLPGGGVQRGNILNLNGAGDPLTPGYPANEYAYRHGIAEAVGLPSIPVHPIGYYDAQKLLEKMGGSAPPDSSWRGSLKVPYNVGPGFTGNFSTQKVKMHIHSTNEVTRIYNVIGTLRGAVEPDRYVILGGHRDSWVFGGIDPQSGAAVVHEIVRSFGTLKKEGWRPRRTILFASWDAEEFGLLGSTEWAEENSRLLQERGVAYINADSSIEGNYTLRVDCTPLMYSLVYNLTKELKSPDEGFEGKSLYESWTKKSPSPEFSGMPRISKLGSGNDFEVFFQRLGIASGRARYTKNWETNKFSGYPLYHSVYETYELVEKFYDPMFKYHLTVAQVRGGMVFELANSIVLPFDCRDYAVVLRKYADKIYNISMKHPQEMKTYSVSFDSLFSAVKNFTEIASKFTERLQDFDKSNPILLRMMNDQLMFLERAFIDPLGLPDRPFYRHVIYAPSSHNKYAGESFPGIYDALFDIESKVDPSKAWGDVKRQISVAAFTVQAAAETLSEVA

B1: P234CR9_A7 (designed binder)
chain: LPAPKNLVVSRVTEDSARLSWGEQFTIFDSFLIQYQESEKVGEAIVLTVPGSERSYDLTGLKPGTEYTVSIYGASGYEWFHAFGSSNPLSAIFTT
notes: FN3 domain (Centyrin), unconjugated, as screened from E. coli lysate; also called P234CR9_A07; not shown: C-terminal poly-histidine tag
B2: P234CR9_H01 (designed binder)
chain: LPAPKNLVVSRVTEDSARLSWEWWVIPGDFDSFLIQYQESEKVGEAIVLTVPGSERSYDLTGLKPGTEYTVSIYGVVNSGQWNDTSNPLSAIFTT
notes: FN3 domain (Centyrin), unconjugated, as screened from E. coli lysate; not shown: C-terminal poly-histidine tag
B3: P258AR6P1070_A05 (designed binder)
chain: LPAPKNLVVSRVTEDSARLSWTIDEQRDWFDSFLIQYQESEKVGEAIVLTVPGSERSYDLTGLKPGTEYTVSIYGVYHVYRSNPLSAIFTT
notes: as for B2
B4: P258AR6P1071_F04 (designed binder)
chain: B3 chain with T22V
notes: as for B2
B5: P258AR6P1071_G03 (designed binder)
chain: B3 chain with T22D
notes: as for B2
B6: P258AR6P1071_D02 (designed binder)
chain: B3 chain with T22A, D31E
notes: as for B2
B7: P258AR6P1070_F09 (designed binder)
chain: B3 chain with D31E
notes: as for B2
B8: His-tagged P233FR9-H10 centyrin (designed binder)
chain: LPAPKNLVVSRVTEDSARLSWTAPDAAFDSFAIGYWEWDDDGEAIVLTVPGSERSYDLTGLKPGTEYPVYIAGVKGGQWSFPLSAIFTT
notes: FN3 domain (Centyrin), unconjugated; used in the screen and in the crystal structure with cynoPSMA; also called H10 FN3 domain; P233FR9_10; not shown: C-terminal His-tag
B9: P233FR9P1001_B5-5 (designed binder)
chain: B8 chain with A32T
notes: as for B2
B10: P233FR9P1001_D9 (designed binder)
chain: B8 chain with A32P, P68W
notes: as for B2
B11: P233FR9P1001_H3-1 (designed binder)
chain: B8 chain with A32P, P68H
notes: as for B2
B12: P229CR5P819_H11 (designed binder)
chain: LPAPKNLVVSRVTEDSARLSWDIDEQRDWFDSFLIQYQESEKVGEAIVLTVPGSERSYDLTGLKPGTEYTVSIYGVYHVYRSSNPLSAIFTT
notes: FN3 domain (Centyrin), unconjugated, as screened from E. coli lysate; also called P229CR9P819-H11; not shown: C-terminal poly-histidine tag

Molecular target: T1, cynomolgus monkey PSMA extracellular …
Test: hit of CIS-display panning and ELISA screen on biotinylated PSMA (same antigen as in panning; signal at least 10-fold above background); column Antigen species
Protocol: (§1) Neutravidin-coated plates were blocked for 1 h in Starting Block T20 (Pierce) and then coated with biotinylated PSMA (using same antigen as in panning) or negative control for 1 h. Plates were rinsed with TBST and diluted lysate was applied to plates for 1 h. Following additional rinses, wells were treated with HRP-conjugated anti-Centyrin antibody (PAB25) for 1 h and then assayed with POD (Roche). Centyrins with signals at least 10-fold above background were selected for further analysis.

**Q.** Does B1 bind?
**A.** Result: binds

**Q.** Does B2 bind?
**A.** Result: binds

**Q.** Does B3 bind?
**A.** Result: binds

**Q.** Does B4 bind?
**A.** Result: binds

**Q.** Does B5 bind?
**A.** Result: binds

**Q.** Does B6 bind?
**A.** Result: binds

**Q.** Does B7 bind?
**A.** Result: binds

Molecular target: T2, chimpanzee PSMA extracellular domain …
Test: as above
Protocol: as §1

**Q.** Does B8 bind?
**A.** Result: binds

**Q.** Does B9 bind?
**A.** Result: binds

**Q.** Does B10 bind?
**A.** Result: binds

**Q.** Does B11 bind?
**A.** Result: binds

**Q.** Does B12 bind?
**A.** Result: binds

Reference: patent US20160326232A1 (Janssen / Centocor, published 2016)
